The target in test [1] is VEGFR2 as engaged in the VEGF hBa/F3 proliferation assay. The test is described as follows: cell-based or functional assay.
In test [2] the target is human serum albumin (human) (UniProt P02768). Nature of the test: SPR, affinity to HSA. (In general: In SPR one partner is held on a chip, and binding of the other changes the refractive index at the surface.)
Chain of human serum albumin (human) (P02768 25-609): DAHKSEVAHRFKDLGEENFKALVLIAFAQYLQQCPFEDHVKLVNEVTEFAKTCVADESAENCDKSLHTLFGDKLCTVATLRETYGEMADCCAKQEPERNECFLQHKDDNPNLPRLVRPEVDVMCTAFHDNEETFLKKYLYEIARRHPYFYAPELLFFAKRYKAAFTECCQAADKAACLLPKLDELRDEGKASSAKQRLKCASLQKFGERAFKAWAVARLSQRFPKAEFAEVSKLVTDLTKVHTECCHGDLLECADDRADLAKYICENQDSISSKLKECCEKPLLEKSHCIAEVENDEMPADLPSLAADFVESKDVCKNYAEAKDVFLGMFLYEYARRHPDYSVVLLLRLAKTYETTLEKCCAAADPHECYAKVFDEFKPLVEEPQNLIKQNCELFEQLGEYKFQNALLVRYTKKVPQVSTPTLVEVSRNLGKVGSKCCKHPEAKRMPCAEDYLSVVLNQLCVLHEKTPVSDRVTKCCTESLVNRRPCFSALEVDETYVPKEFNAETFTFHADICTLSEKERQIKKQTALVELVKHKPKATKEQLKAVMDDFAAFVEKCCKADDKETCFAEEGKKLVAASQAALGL

Consider “CT-322 (C7FL lacking the 8 N-terminal amino acids and linked to PEG) (designed binder)”, for which, in test [1], the IC50, VEGF hBa/F3 proliferation assay worked out at 7.53; the IC50, VEGF hBa/F3 proliferation assay, with HSA was determined as 8.85; the Rel Pot (C7FL), VEGF hBa/F3 proliferation assay worked out at 0.62; the Rel Pot (C7FL), VEGF hBa/F3 proliferation assay, with HSA worked out at 0.53.

On to ABD (alone; column 'ABD' of Table 6), for which the Kd (usually a measure of binding affinity in units of concentration) in test [2] fell in the range of 1.6 to 2.6 nM.

Values taken from US20160152686A1.
